The values below come from patent US20040049800A1, “Rapid methods for assessing therapeutic activity using animals expressing constitutively active G protein coupled receptors” (priority 2002, published 2004).

Experiment [1] addresses Asn150Ala mutant rat mu opioid receptor (rat) (UniProt P33535). The experiment can be described thus: cell-based or functional assay.
Experiment [2] has as its target wild-type rat mu opioid receptor (rat) (UniProt P33535). In words: cell-based or functional assay.
Experiment [3] has as its system SMS-Luc reporter in HEK293 cells. The experiment can be described thus: SMS-Luc luciferase reporter assay of MC-4 receptors in HEK293 cells. The format is cell-based. The method, then: (§1) Briefly, HEK293 cells were cotransfected, as described above, with an expression vector encoding either the wild-type MC-4 receptor or the Asp146Met mutant MC-4 receptor and the reporter construct, SMS-Luc. As a negative control, cells were transfected with SMS-Luc and pcDNA1. Basal and ligand (αMHS) induced activity of the negative control, the wild-type MC-4 receptor, and the Asp146Met mutant MC-4 receptor were measured using the luciferase assay described above. […] Other constitutively active MC-4 receptors may be generated by this or any other approach and introduced as transgenics into animals of the invention

Experiment [4] deals with cAMP production. The experiment can be described thus: basal level cAMP production of MC-4 receptor mutant. Particulars: FIG. 2. Format: cell-based.
Text: FIG. 2 is a graph showing the constitutive activity of a D146M MC-4 receptor mutant as assayed by measuring basal level cAMP production.
as §1

Experiment [5] relates to SMS-Luc reporter in HEK293 cells. In words: SMS-Luc luciferase reporter assay of CCK-BR receptors in HEK293 cells. Format: cell-based. The settings on record: FIG. 3. The method, then: In addition to these studies, luciferase assays were performed to measure the constitutive activity of the Leu325Glu CCK-BR mutant. HEK293 cells were transfected (as described above) with SMS-Luc and an expression vector encoding any one of pcDNA1, wild-type CCK-BR, or Leu325Glu CCK-BR.

Experiment [6] concerns phospholipase C-mediated production of inositol phosphate in COS-7 cells. Particulars: absence of agonist; cited from earlier work.
The test system of experiment [7] is SRE-Luc + Gq5i reporter in HEK293 cells. In words: SRE-Luc/Gq5i luciferase reporter assay in transfected HEK293 cells. The settings on record: for stimulation of basal level activity: Asn150Ala mutant versus wild-type receptor; for Ligand Induced Activity (Light Emission) / Basal Activity (Light Emission): HEK293 cells; for Ligand Induced Activity (Light Emission): ligand DAMGO; for Basal Activity (Light Emission): no ligand. The format is cell-based. The method, then:
Constitutive activity of the Asn150Ala mutant rat mu opioid receptor was assessed using a luciferase assay. The rat mu opioid receptor is a Gαi coupled receptor. Therefore we chose to use the Gq5i reporter system, described in detail above (Broach and Thorner, supra), which switches the signaling pathway from Gαi to Gαq for reliable positive readout. HEK293 cells were transfected with the reporter construct SRE-Luc, an expression vector containing nucleic acid encoding Gq5i (Broach and Thorner, supra), and an expression vector containing nucleic acid encoding either the wild-type or the Asn150Ala mutant rat mu opioid receptor. Basal and ligand-stimulated luciferase activity was measured. The ligand used in this assay was [D-Ala^2-MePhe^4, Gly-ol^5]enkephalin] (DAMGO). As a negative control, HEK293 cells were transfected with pcDNA1 (empty vector DNA), SRE-Luc, and the expression vector containing nucleic acid encoding Gq5i (Broach and Thorner, supra).
The luciferase assay was carried out as follows. On day 1, HEK293 cells in a T75 flask were washed with 15 ml serum-free media (or PBS), trypsinized with 5 ml 0.05% trypsin-EDTA (Gibco #25300-062), incubated at 37° C. for 3 minutes at which time 6-7 ml complete HEK293 media (Gibco #12100-046) and 10% Fetal Bovine Serum (Intergen #1050-90) were added. Thereafter, cells were collected in 50 ml centrifuge tubes, pelleted at 800-900 rpm (RCF ˜275), and resuspend in 20 ml complete media. The cells were counted using a haemocytometer and diluted to 85,000 cells/ml in complete media. Using a repeat pipettor or cell plater, 100 μl of cells were added to each well of a Primaria 96-well plate (Falcon #353872). Cells were then incubated at 37° C., 5% CO2 until use at 48 hours.
On day 3, cells were transfected using LipofectAMINE™ according to the manufacturer's protocol (Gibco #18324-012, Rockville, Md.).
On day 4, cells were stimulated as follows. Ligands for the receptor, either DAMGO or a non-peptide ligand (e.g., naloxone or naltrexone), were diluted to a desired concentration in serum-free media containing 0.15 mM PMSF (or other protease inhibitor(s)). The transfection media was then completely removed from cells and 50-100 μl stimulation media (i.e., media containing candidate ligands or the corresponding ligand free solvent) was added to each well. The cells were incubated for the desired time (standard is overnight) at 37° C., 5% CO2, although the optimal stimulation time may vary depending on the particular receptor used. The optimal incubation time may be determined systematically by testing a range of incubation times and determining which one yields the highest level of stimulation. For concomitant assessment of two ligands (e.g., ligand induced inhibition of forskolin stimulated CRE activity) each stimulus is prepared at two times the desired final concentration and mixed in equal volumes prior to addition to cells.
On day 5, an assay for luciferase expression was carried out according to the manufacturer's instructions (Packard, Meridin, Conn.)

“[D-Ala^2-MePhe^4, Gly-ol^5]enkephalin (peptide)”: the Ligand Induced Activity (Light Emission), SRE-Luc + Gq5i luciferase reporter in HEK293 cells (Light Emission) in experiment [1] is 87000; in experiment [2] it was 87500.

In the case of “Asp146Met mutant MC-4 receptor: melanocortin-4 receptor with Asp at position 146 of the DRY motif replaced by Met”, the “basal level activity versus wild-type MC-4 receptor” value in experiment [3] was “higher basal level activity than its wild-type counterpart”. Also, in experiment [4], the “constitutive activity in cAMP assay” value was “exhibited constitutive activity”.

B1: Leu325Glu CCK-BR mutant: human CCK-BR with point mutation Leu325Glu in the third intracellular loop; constitutively active (protein, UniProt P32239 1-447, looked up, variant L325E)
Gastrin/cholecystokinin type …: MELLKLNRSVQGTGPGPGASLCRPGAPLLNSSSVGNLSCEPPRIRGAGTRELELAIRITLYAVIFLMSVGGNMLIIVVLGLSRRLRTVTNAFLLSLAVSDLLLAVACMPFTLLPNLMGTFIFGTVICKAVSYLMGVSVSVSTLSLVAIALERYSAICRPLQARVWQTRSHAARVIVATWLLSGLLMVPYPVYTVVQPVGPRVLQCVHRWPSARVRQTWSVLLLLLLFFIPGVVMAVAYGLISRELYLGLRFDGDSDSDSQSRVRNQGGLPGAVHQNGRCRPETGAVGEDSDGCYVQLPRSRPALELTALTAPGPGSGSRPTQAKELAKKRVVRMLLVIVVLFFLCWLPVYSANTWRAFDGPGAHRALSGAPISFIHLLSYASACVNPLVYCFMHRRFRQACLETCARCCPRPPRARPRALPDEDPPTPSIASLSRLSYTTISTLGPG
With B1, the “basal level activity compared to wild-type CCK-BR” value in experiment [5] is listed as “increased basal level activity compared to the wild-type CCK-BR”. Besides, the “agonist-independent constitutive activity (inositol phosphate production)” value in experiment [6] is on record as “triggers constitutive production of inositol phosphates to levels exceeding wild-type CCK-BR”.

B2: Asn150Ala rat mu opioid receptor: rat mu opioid receptor with Asn150Ala point mutation at position 150 of SEQ ID NO: 1; constitutively active (protein, listed as Rattus norvegicus)
chain: MDSSTGPGNTSDCSDPLAQASCSPAPGSWLNLSHVDGNQSDPCGLNRTGLGGNDSLCPQTGSPSMVTAITIMALYSIVCVVGLFGNFLVMYVIVRYTKMKTATNIYIFNLALADALATSTLPFQSVNYLMGTWPFGTILCKIVISIDYYAMFTSIFTLCTMSVDRYIAVCHPVKALDFRTPRNAKIVNVCNWILSSAIGLPVMFMATTKYRQGSIDCTLTFSHPTWYWENLLKICVFIFAFIMPILIITVCYGLMILRLKSVRMLSGSKEKDRNLRRITRMVLVVVAVFIVCWTPIHIYVIIKALITIPETTFQTVSWHFCIALGYTNSCLNPVLYAFLDENFKRCFREFCIPTSSTIEQQNSTRVRQNTREHPSTANTVDRTNHQLENLEAETAPLP
On to B2, for which, in experiment [7], the “stimulation of basal level activity” value is “*6.5-fold stimulation of basal level activity”, the “Ligand Induced Activity (Light Emission)” value is 86,996 and the “Basal Activity (Light Emission)” value is reported as “*56,498”. In experiment [7] (listed as Asn150Ala mutant mu opioid receptor), the “stimulation of basal level activity” value is on record as “approximately 6.5 fold”.

B3: wild-type rat mu opioid receptor: wild-type rat mu opioid receptor (SEQ ID NO: 1), Gαi coupled receptor, comparator (protein, listed as Rattus norvegicus)
chain: MDSSTGPGNTSDCSDPLAQASCSPAPGSWLNLSHVDGNQSDPCGLNRTGLGGNDSLCPQTGSPSMVTAITIMALYSIVCVVGLFGNFLVMYVIVRYTKMKTATNIYIFNLALADALATSTLPFQSVNYLMGTWPFGTILCKIVISIDYYNMFTSIFTLCTMSVDRYIAVCHPVKALDFRTPRNAKIVNVCNWILSSAIGLPVMFMATTKYRQGSIDCTLTFSHPTWYWENLLKICVFIFAFIMPILIITVCYGLMILRLKSVRMLSGSKEKDRNLRRITRMVLVVVAVFIVCWTPIHIYVIIKALITIPETTFQTVSWHFCIALGYTNSCLNPVLYAFLDENFKRCFREFCIPTSSTIEQQNSTRVRQNTREHPSTANTVDRTNHQLENLEAETAPLP
As for B3, in experiment [7], the “Ligand Induced Activity (Light Emission)” value is listed as 87,461 and the “Basal Activity (Light Emission)” value is on record as 8,436.
